For one molecule, Kd results are on record in PMC10491969 (Journal of Advanced Research, 2022).

This assay deals with T1, Recombinant human TRAF2 protein (human, UniProt Q12933 1-501).
T1 sequence (looked up): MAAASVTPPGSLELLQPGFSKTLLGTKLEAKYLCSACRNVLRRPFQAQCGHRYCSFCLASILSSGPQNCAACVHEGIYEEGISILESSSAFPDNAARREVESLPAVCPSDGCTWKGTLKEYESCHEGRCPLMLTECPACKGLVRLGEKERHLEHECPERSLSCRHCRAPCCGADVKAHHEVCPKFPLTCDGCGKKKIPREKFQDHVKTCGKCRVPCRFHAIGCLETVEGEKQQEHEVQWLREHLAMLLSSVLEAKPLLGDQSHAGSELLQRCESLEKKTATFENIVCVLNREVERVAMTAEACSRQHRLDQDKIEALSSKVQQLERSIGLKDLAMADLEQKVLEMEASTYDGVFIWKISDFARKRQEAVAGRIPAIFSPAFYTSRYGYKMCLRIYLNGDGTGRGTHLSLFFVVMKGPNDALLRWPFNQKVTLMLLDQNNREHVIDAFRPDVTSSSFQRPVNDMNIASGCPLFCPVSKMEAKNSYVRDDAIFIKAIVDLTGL
In words: SPR. (Surface plasmon resonance follows binding to a sensor surface in real time, without labels.)

B1: Recombinant human STING protein (natural protein, UniProt Q86WV6 135-379, looked up)
chain: GLKGLAPAEISAVCEKGNFNVAHGLAWSYYIGYLRLILPELQARIRTYNQHYNNLLRGAVSQRLYILLPLDCGVPDNLSMADPNIRFLDKLPQQTGDHAGIKDRVYSNSIYELLENGQRAGTCVLEYATPLQTLFAMSQYSQAGFSREDRLEQAKLFCRTLEDILADAPESQNNCRLIAYQEPADDSSFSLSQEVLRHLRQEEKEEVTVGSLKTSAVPSTSTMSQEPELLISGMEKPLPLRTDFS
What is called Kd is the equilibrium constant for the complex coming apart. Turning to B1, the Kd was found to be 502 nM.
